{"source": "patent US20220211857A1", "about": "“POLYPEPTIDE DERIVATIVE AND PREPARATION METHOD THEREOF” (NINGBO KUNPENG BIOTECH CO., LTD., priority 2019, published 2022)", "key": {"[1]": {"test": "Pharmacokinetics studies of PTH-1 derivatives in rats (single subcutaneous injection, LC-MS/MS, NCA)", "format": "in vivo", "conditions": "rat; for half-lives (in words): experiment of Example 10 repeated in the same way", "description": "PTH-1 and L6-GFA16-PTH-1 were injected subcutaneously with a single administration of 8.6 μg/kg, respectively. Animals in each group were collected blood at 0 min, 5 min, 15 min, 30 min, 1 h, 2 h, and 4 h after administration. […] Exposure time of drugs in vivo was prolonged and exposure doses were increased."}, "[2]": {"conditions": "general background statement; cited from earlier work"}, "[3]": {"conditions": "subcutaneous administration or intramuscular injection, background statement; cited from earlier work"}}, "note": "Where a SMILES comes first, the peptide text is derived from it. The star is where a group is joined. X1 = O=C(O)CCCCCCCCCCCCCCC(=O)NC(CCC(=O)NCCOCCOCC(=O)NCCOCCOCC(=O)NCCn1cc(CCOC(=O)*)nn1)C(=O)O; X6 = O=C(O)CCCCCCCCCCCCCCC(=O)NC(CCC(=O)NCCOCCOCC(=O)NCCOCCOCCn1cc(CCOC(=O)*)nn1)C(=O)O; X3 = O=C(O)CCCCCCCCCCCCCCC(=O)NC(CCC(=O)NCCOCCOCCOCCOCCn1cc(CCOC(=O)*)nn1)C(=O)O; X5 = O=C(O)CCCCCCCCCCCCCCC(=O)NC(CCC(=O)NCCOCCOCCOCCn1cc(CCOC(=O)*)nn1)C(=O)O; X4 = O=C(O)CCCCCCCCCCCCCCC(=O)NC(CCC(=O)NCCOCCOCCn1cc(CCOC(=O)*)nn1)C(=O)O"}
{"compound": "CC[C@H](C)[C@H](NC(=O)[C@H](CCC(=O)O)NC(=O)[C@H](CO)NC(=O)[C@@H](NC(=O)[C@@H](N)CO)C(C)C)C(=O)N[C@@H](CCC(N)=O)C(=O)N[C@@H](CC(C)C)C(=O)N[C@@H](CCSC)C(=O)N[C@@H](Cc1c[nH]cn1)C(=O)N[C@@H](CC(N)=O)C(=O)N[C@@H](CC(C)C)C(=O)NCC(=O)N[C@@H](CCCNC(=N)N)C(=O)N[C@@H](Cc1c[nH]cn1)C(=O)N[C@@H](CC(C)C)C(=O)N[C@@H](CC(N)=O)C(=O)N[C@@H](CO)C(=O)N[C@@H](CCSC)C(=O)N[C@@H](CCC(=O)O)C(=O)N[C@@H](CCCNC(=N)N)C(=O)N[C@H](C(=O)N[C@@H](CCC(=O)O)C(=O)N[C@@H](Cc1c[nH]c2ccccc12)C(=O)N[C@@H](CC(C)C)C(=O)N[C@@H](CCCNC(=N)N)C(=O)N[C@@H](CCCCNC(=O)OCCc1cn(CCOCCOCCNC(=O)CCC(NC(=O)CCCCCCCCCCCCCCC(=O)O)C(=O)O)nn1)C(=O)N[C@@H](CCCNC(=N)N)C(=O)N[C@@H](CC(C)C)C(=O)N[C@@H](CCC(N)=O)C(=O)N[C@@H](CC(=O)O)C(=O)N[C@H](C(=O)N[C@@H](Cc1c[nH]cn1)C(=O)N[C@@H](CC(N)=O)C(=O)N[C@@H](Cc1ccccc1)C(=O)O)C(C)C)C(C)C", "note": "(stereo partly shown) [L2-GFA16-PTH] (H-SVSEIQLMHNLGRHLNSMERVEWLRK(X4)RLQDVHNF-OH)", "values": [{"measurement": "half-lives (in words)", "setting": "[1]", "result": "significantly prolonged"}]}
{"compound": "CC[C@H](C)[C@H](NC(=O)[C@H](CCC(=O)O)NC(=O)[C@H](CO)NC(=O)[C@@H](NC(=O)[C@@H](N)CO)C(C)C)C(=O)N[C@@H](CCC(N)=O)C(=O)N[C@@H](CC(C)C)C(=O)N[C@@H](CCSC)C(=O)N[C@@H](Cc1c[nH]cn1)C(=O)N[C@@H](CC(N)=O)C(=O)N[C@@H](CC(C)C)C(=O)NCC(=O)N[C@@H](CCCNC(=N)N)C(=O)N[C@@H](Cc1c[nH]cn1)C(=O)N[C@@H](CC(C)C)C(=O)N[C@@H](CC(N)=O)C(=O)N[C@@H](CO)C(=O)N[C@@H](CCSC)C(=O)N[C@@H](CCC(=O)O)C(=O)N[C@@H](CCCNC(=N)N)C(=O)N[C@H](C(=O)N[C@@H](CCC(=O)O)C(=O)N[C@@H](Cc1c[nH]c2ccccc12)C(=O)N[C@@H](CC(C)C)C(=O)N[C@@H](CCCNC(=N)N)C(=O)N[C@@H](CCCCNC(=O)OCCc1cn(CCOCCOCCOCCNC(=O)CCC(NC(=O)CCCCCCCCCCCCCCC(=O)O)C(=O)O)nn1)C(=O)N[C@@H](CCCNC(=N)N)C(=O)N[C@@H](CC(C)C)C(=O)N[C@@H](CCC(N)=O)C(=O)N[C@@H](CC(=O)O)C(=O)N[C@H](C(=O)N[C@@H](Cc1c[nH]cn1)C(=O)N[C@@H](CC(N)=O)C(=O)N[C@@H](Cc1ccccc1)C(=O)O)C(C)C)C(C)C", "note": "(stereo partly shown) [L3-GFA16-PTH] (H-SVSEIQLMHNLGRHLNSMERVEWLRK(X5)RLQDVHNF-OH)", "values": [{"measurement": "half-lives (in words)", "setting": "[1]", "result": "significantly prolonged"}]}
{"compound": "CC[C@H](C)[C@H](NC(=O)[C@H](CCC(=O)O)NC(=O)[C@H](CO)NC(=O)[C@@H](NC(=O)[C@@H](N)CO)C(C)C)C(=O)N[C@@H](CCC(N)=O)C(=O)N[C@@H](CC(C)C)C(=O)N[C@@H](CCSC)C(=O)N[C@@H](Cc1c[nH]cn1)C(=O)N[C@@H](CC(N)=O)C(=O)N[C@@H](CC(C)C)C(=O)NCC(=O)N[C@@H](CCCNC(=N)N)C(=O)N[C@@H](Cc1c[nH]cn1)C(=O)N[C@@H](CC(C)C)C(=O)N[C@@H](CC(N)=O)C(=O)N[C@@H](CO)C(=O)N[C@@H](CCSC)C(=O)N[C@@H](CCC(=O)O)C(=O)N[C@@H](CCCNC(=N)N)C(=O)N[C@H](C(=O)N[C@@H](CCC(=O)O)C(=O)N[C@@H](Cc1c[nH]c2ccccc12)C(=O)N[C@@H](CC(C)C)C(=O)N[C@@H](CCCNC(=N)N)C(=O)N[C@@H](CCCCNC(=O)OCCc1cn(CCOCCOCCOCCOCCNC(=O)CCC(NC(=O)CCCCCCCCCCCCCCC(=O)O)C(=O)O)nn1)C(=O)N[C@@H](CCCNC(=N)N)C(=O)N[C@@H](CC(C)C)C(=O)N[C@@H](CCC(N)=O)C(=O)N[C@@H](CC(=O)O)C(=O)N[C@H](C(=O)N[C@@H](Cc1c[nH]cn1)C(=O)N[C@@H](CC(N)=O)C(=O)N[C@@H](Cc1ccccc1)C(=O)O)C(C)C)C(C)C", "note": "(stereo partly shown) [L4-GFA16-PTH] (H-SVSEIQLMHNLGRHLNSMERVEWLRK(X3)RLQDVHNF-OH)", "values": [{"measurement": "half-lives (in words)", "setting": "[1]", "result": "significantly prolonged"}]}
{"compound": "CC[C@H](C)[C@H](NC(=O)[C@H](CCC(=O)O)NC(=O)[C@H](CO)NC(=O)[C@@H](NC(=O)[C@@H](N)CO)C(C)C)C(=O)N[C@@H](CCC(N)=O)C(=O)N[C@@H](CC(C)C)C(=O)N[C@@H](CCSC)C(=O)N[C@@H](Cc1c[nH]cn1)C(=O)N[C@@H](CC(N)=O)C(=O)N[C@@H](CC(C)C)C(=O)NCC(=O)N[C@@H](CCCNC(=N)N)C(=O)N[C@@H](Cc1c[nH]cn1)C(=O)N[C@@H](CC(C)C)C(=O)N[C@@H](CC(N)=O)C(=O)N[C@@H](CO)C(=O)N[C@@H](CCSC)C(=O)N[C@@H](CCC(=O)O)C(=O)N[C@@H](CCCNC(=N)N)C(=O)N[C@H](C(=O)N[C@@H](CCC(=O)O)C(=O)N[C@@H](Cc1c[nH]c2ccccc12)C(=O)N[C@@H](CC(C)C)C(=O)N[C@@H](CCCNC(=N)N)C(=O)N[C@@H](CCCCNC(=O)OCCc1cn(CCOCCOCCNC(=O)COCCOCCNC(=O)CCC(NC(=O)CCCCCCCCCCCCCCC(=O)O)C(=O)O)nn1)C(=O)N[C@@H](CCCNC(=N)N)C(=O)N[C@@H](CC(C)C)C(=O)N[C@@H](CCC(N)=O)C(=O)N[C@@H](CC(=O)O)C(=O)N[C@H](C(=O)N[C@@H](Cc1c[nH]cn1)C(=O)N[C@@H](CC(N)=O)C(=O)N[C@@H](Cc1ccccc1)C(=O)O)C(C)C)C(C)C", "note": "(stereo partly shown) [L5-GFA16-PTH] (H-SVSEIQLMHNLGRHLNSMERVEWLRK(X6)RLQDVHNF-OH)", "values": [{"measurement": "half-lives (in words)", "setting": "[1]", "result": "significantly prolonged"}]}
{"compound": "CC[C@H](C)[C@H](NC(=O)[C@H](CCC(=O)O)NC(=O)[C@H](CO)NC(=O)[C@@H](NC(=O)[C@@H](N)CO)C(C)C)C(=O)N[C@@H](CCC(N)=O)C(=O)N[C@@H](CC(C)C)C(=O)N[C@@H](CCSC)C(=O)N[C@@H](Cc1c[nH]cn1)C(=O)N[C@@H](CC(N)=O)C(=O)N[C@@H](CC(C)C)C(=O)NCC(=O)N[C@@H](CCCNC(=N)N)C(=O)N[C@@H](Cc1c[nH]cn1)C(=O)N[C@@H](CC(C)C)C(=O)N[C@@H](CC(N)=O)C(=O)N[C@@H](CO)C(=O)N[C@@H](CCSC)C(=O)N[C@@H](CCC(=O)O)C(=O)N[C@@H](CCCNC(=N)N)C(=O)N[C@H](C(=O)N[C@@H](CCC(=O)O)C(=O)N[C@@H](Cc1c[nH]c2ccccc12)C(=O)N[C@@H](CC(C)C)C(=O)N[C@@H](CCCNC(=N)N)C(=O)N[C@@H](CCCCNC(=O)OCCc1cn(CCNC(=O)COCCOCCNC(=O)COCCOCCNC(=O)CCC(NC(=O)CCCCCCCCCCCCCCC(=O)O)C(=O)O)nn1)C(=O)N[C@@H](CCCNC(=N)N)C(=O)N[C@@H](CC(C)C)C(=O)N[C@@H](CCC(N)=O)C(=O)N[C@@H](CC(=O)O)C(=O)N[C@H](C(=O)N[C@@H](Cc1c[nH]cn1)C(=O)N[C@@H](CC(N)=O)C(=O)N[C@@H](Cc1ccccc1)C(=O)O)C(C)C)C(C)C", "note": "(stereo partly shown) [L6-GFA16-PTH] (H-SVSEIQLMHNLGRHLNSMERVEWLRK(X1)RLQDVHNF-OH)", "values": [{"measurement": "Tmax", "setting": "[1]; in vivo, sc, s.c. 8.6 μg/kg, summary of Table 3, read-out: peak times", "result": "~1.6", "unit": "h"}]}
{"compound": "GLP-1: glucose-dependent incretin polypeptide hormone; reference substance of Table 2", "values": [{"measurement": "biological half-life in vivo", "setting": "[2]", "result": 20, "unit": "minutes"}]}
{"compound": "PTH: parathyroid hormone; PTH-1 is the reference substance of Table 3 (SVSEIQLMHNLGRHLNSMERVEWLRKRLQDVHNF; Amino Acid Sequence of PTH)", "values": [{"measurement": "half-life", "setting": "[3]", "result": "about 12 hours"}]}
